Laboratory results taken from publication PMC5084270 (The Journal of Cell Biology, 2016).

Target: FLAG-DDB1 (UniProt Q16531 1-1140)
Experiment: pull-down

Sequence of FLAG-DDB1 (Q16531 whole entry): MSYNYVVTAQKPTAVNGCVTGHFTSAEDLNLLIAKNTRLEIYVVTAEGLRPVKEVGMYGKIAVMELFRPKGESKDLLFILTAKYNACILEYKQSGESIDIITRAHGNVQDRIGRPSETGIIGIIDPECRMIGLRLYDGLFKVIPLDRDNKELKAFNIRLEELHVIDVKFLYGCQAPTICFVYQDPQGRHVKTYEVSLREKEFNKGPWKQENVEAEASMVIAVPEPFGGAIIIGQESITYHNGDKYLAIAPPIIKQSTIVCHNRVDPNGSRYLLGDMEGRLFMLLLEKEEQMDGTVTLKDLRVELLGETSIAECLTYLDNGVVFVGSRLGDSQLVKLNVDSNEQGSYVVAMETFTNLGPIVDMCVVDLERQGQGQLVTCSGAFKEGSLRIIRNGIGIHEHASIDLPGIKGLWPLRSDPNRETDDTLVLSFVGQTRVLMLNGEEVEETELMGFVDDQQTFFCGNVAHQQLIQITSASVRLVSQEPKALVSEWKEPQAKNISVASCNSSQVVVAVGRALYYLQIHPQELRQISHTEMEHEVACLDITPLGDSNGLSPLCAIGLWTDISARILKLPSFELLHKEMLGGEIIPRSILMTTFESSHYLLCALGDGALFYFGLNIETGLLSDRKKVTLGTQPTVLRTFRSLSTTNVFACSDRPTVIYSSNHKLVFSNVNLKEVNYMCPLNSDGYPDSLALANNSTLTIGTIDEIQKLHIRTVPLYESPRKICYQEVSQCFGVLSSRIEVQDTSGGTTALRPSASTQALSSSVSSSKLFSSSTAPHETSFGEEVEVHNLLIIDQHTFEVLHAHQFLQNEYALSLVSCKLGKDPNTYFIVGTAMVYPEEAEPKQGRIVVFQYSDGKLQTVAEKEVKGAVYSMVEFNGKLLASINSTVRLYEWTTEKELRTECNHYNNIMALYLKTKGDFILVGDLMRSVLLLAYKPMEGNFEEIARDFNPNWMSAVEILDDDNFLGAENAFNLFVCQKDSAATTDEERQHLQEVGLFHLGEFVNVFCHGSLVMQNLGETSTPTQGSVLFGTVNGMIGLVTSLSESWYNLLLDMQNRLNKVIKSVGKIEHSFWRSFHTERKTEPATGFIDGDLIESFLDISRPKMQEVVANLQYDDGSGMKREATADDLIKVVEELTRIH

B1: GFP-DDB2 (natural protein)
chain: MAPKKRPETQKTSEIVLRPRNKRSRSPLELEPEAKKLCAKGSGPSRRCDSDCLWVGLAGPQILPPCRSIVRTLHQHKLGRASWPSVQQGLQQSFLHTLDSYRILQKAAPFDRRATSLAWHPTHPSTVAVGSKGGDIMLWNFGIKDKPTFIKGIGAGGSITGLKFNPLNTNQFYASSMEGTTRLQDFKGNILRVFASSDTINIWFCSLDVSASSRMVVTGDNVGNVILLNMDGKELWNLRMHKKKVTHVALNPCCDWFLATASVDQTVKIWDLRQVRGKASFLYSLPHRHPVNAACFSPDGARLLTTDQKSEIRVYSASQWDCPLGLIPHPHRHFQHLTPIKAAWHPRYNLIVVGRYPDPNFKSCTPYELRTIDVFDGNSGKMMCQLYDPESSGISSLNEFNPMGDTLASAMGYHILIWSQEEARTRK
Q: Does B1 bind?
A: binds
